One protein from US20220016130 can be followed below.

The target in the series is His-BRD4-N (amino acids 1-500), O60885.

B1: GST-SPOP (protein)
chain: MSRVPSPPPPAEMSSGPVAESWCYTQIKVVKFSYMWTINNFSFCREEMGEVIKSSTFSSGANDKLKWCLRVNPKGLDEESKDYLSLYLLLVSCPKSEVRAKFKFSILNAKGEETKAMESQRAYRFVQGKDWGFKKFIRRDFLLDEANGLLPDDKLTLFCEVSVVQDSVNISGQNTMNMVKVPECRLADELGGLWENSRFTDCCLCVAGQEFQAHKAILAARSPVFSAMFEHEMEESKKNRVEINDVEPEVFKEMMCFIYTGKAPNLDKMADDLLAAADKYALERLKVMCEDALCSNLSVENAAEILILADLHSADQLKTQAVDFINYHASDVLETSGWKSMVVSHPHLVAEAYRSLASAQCPFLGPPRKRLKQS
B1: the “in vitro ubiquitination assay (western blot)” value was “The SPOP-CULLIN3-RBX1 complex was shown to catalyzed BRD4 ubiquitination in vitro”.
